Assay results as given in US6699969 (University of California, dated 2004).

T1: baculovirus-expressed S. purpuratus katanin p80 subunit with N-terminal His(6) tag (Strongylocentrotus purpuratus, UniProt O61585 1-690)
T1 construct: Expressed in Sf9 cells and purified on Ni-NTA; GenBank AF052433; also called p80 katanin; recombinant p80
T1 sequence: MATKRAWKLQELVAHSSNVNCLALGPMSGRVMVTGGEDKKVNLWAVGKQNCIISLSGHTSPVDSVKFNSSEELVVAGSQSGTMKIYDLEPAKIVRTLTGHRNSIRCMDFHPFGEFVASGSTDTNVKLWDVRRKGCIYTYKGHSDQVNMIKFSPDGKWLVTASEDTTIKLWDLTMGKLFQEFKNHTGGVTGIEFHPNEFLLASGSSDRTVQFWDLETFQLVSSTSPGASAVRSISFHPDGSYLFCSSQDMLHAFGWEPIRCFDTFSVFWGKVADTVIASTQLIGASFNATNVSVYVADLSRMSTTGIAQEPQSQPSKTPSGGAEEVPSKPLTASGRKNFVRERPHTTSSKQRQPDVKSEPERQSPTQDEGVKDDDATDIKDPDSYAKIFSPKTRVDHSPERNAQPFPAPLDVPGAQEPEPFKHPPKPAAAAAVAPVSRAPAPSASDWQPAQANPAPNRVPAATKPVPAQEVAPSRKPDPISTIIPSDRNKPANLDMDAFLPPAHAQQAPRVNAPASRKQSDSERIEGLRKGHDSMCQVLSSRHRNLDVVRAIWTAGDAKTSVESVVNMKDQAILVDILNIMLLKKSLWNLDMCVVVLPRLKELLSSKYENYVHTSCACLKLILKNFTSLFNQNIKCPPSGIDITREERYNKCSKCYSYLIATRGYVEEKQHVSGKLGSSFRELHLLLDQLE

T2: p80 delta 560-690, S. purpuratus p80 katanin deletion lacking the C-terminal 130 amino acids, with N-terminal … (Strongylocentrotus purpuratus, UniProt O61585 1-559)
T2 construct: Residues 560-690 deleted by the construct's name; The text says 'C-terminal 130 amino acids', but 560-690 counts 131 residues; also called 560-690 deletion derivative of p80; not shown: 37 amino acid N-terminal S-Tag from pCITE-4a+
T2 sequence: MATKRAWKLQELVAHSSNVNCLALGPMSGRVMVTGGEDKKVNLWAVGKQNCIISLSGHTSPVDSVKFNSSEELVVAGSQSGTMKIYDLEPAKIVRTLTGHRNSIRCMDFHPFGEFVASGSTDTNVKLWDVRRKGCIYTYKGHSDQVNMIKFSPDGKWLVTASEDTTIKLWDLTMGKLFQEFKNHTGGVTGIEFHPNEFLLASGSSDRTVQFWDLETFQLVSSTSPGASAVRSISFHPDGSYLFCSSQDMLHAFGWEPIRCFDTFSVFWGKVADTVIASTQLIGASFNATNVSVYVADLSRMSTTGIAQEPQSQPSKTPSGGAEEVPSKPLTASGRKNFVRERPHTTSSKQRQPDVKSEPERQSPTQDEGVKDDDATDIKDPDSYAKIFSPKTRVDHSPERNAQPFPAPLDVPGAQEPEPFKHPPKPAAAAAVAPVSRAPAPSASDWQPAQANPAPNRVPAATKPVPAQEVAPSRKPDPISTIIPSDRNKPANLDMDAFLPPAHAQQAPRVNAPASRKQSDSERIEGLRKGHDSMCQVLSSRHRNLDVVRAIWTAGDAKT

B1: baculovirus-expressed S. purpuratus katanin p60 subunit with N-terminal His(6) tag (enzyme, not shown: small tags and cut ends)
chain: MSVDEICENTKMGREYALLGNYETSLVYYQGVLQQIQKLLTSVHEPQRKHQWQTIRQELSQEYEHVKNITKTLNGFKSEPAAPEPAPNHGRAAPFSHHQHAAKPAAAEPARDPDVWPPPTPVDHRPSPPYQRAARKDPPRRSEPSKPANRAPGNDRGGRGPSDRRGDARSGGGGRGGARGSDKDKNRGGKSDKDKKAPSGEEGDEKKFDPAGYDKDLVENLERDIVQRNPNVHWADIAGLTEAKRLLEEAVVLPLWMPDYFKGIRRPWKGVLMVGPPGTGKTMLAKAVATECGTTFFNVSSASLTSKYHGESEKLVRLLFEMARFYAPSTIFIDEIDSICSKRGTGSEHEASRRVKSELLIQMDGVSGPSAGEESSKMVMVLAATNFPWDIDEALRRRLEKRIYIPLPEIDGREQLLRINLKEVPLADDIDLKSIAEKMDGYSGADITNVCRDASMMAMRRRIQGLRPEEIRHIPKEELNQPSTPADFLLALQKVSKSVGKEDLVKYMAWMEEFGSV
notes: Expressed in Sf9 cells and purified on Ni-NTA; also called p60 katanin; recombinant p60
B2: in vitro translated S. purpuratus p60 katanin with 37 amino acid N-terminal S-Tag (enzyme)
chain: B1 chain
notes: Made in a rabbit reticulocyte transcription-translation reaction; not shown: 37 amino acid N-terminal S-Tag from pCITE-4a+
B3: p80 delta 303-690, C-terminal truncation of S. purpuratus p80 katanin containing only the WD40 domain, with N-terminal S-Tag (other)
chain: MATKRAWKLQELVAHSSNVNCLALGPMSGRVMVTGGEDKKVNLWAVGKQNCIISLSGHTSPVDSVKFNSSEELVVAGSQSGTMKIYDLEPAKIVRTLTGHRNSIRCMDFHPFGEFVASGSTDTNVKLWDVRRKGCIYTYKGHSDQVNMIKFSPDGKWLVTASEDTTIKLWDLTMGKLFQEFKNHTGGVTGIEFHPNEFLLASGSSDRTVQFWDLETFQLVSSTSPGASAVRSISFHPDGSYLFCSSQDMLHAFGWEPIRCFDTFSVFWGKVADTVIASTQLIGASFNATNVSVYVADLSRMS
notes: not shown: 37 amino acid N-terminal S-Tag from pCITE-4a+

Tests used:
[1] = biological target: T1, baculovirus-expressed S. purpuratus …; assay: co-expression in insect cells, metal affinity purification, Coomassie staining
Description: 6×His-tagged katanin subunits were purified from lysates of baculovirus-infected insect cells by binding to Ni^2+-NTA Superflow followed by elution with imidazole, as described in the Experimental Procedures. […] Proteins bound to the resin were analyzed by SDS-PAGE followed by staining with Coomassie.
Deciphering the roles of the two katanin subunits is essential for understanding the enzyme's mechanism and biological activities. […] We therefore sought to express the two subunits together and separately and then test their enzymatic activities.

[2] = biological target: the molecule itself; assay: rotary-shadowing electron microscopy of recombinant p60
[3] = biological target: T2, p80 delta 560-690, S. purpuratus p80 …; assay: in vitro co-translation, immunoprecipitation with anti-p60 antibody, S-protein HRP blot
Description: (§1) In vitro synthesis of proteins directly from plasmid DNAs was accomplished using the Single Tube Protein System 2, T7 (Novagen). […] For immunoprecipitations, lysates were incubated on ice with Pansorbin (Calbiochem)-antibody complexes, washed in NET buffer (50 mM Tris-Cl (pH 7.5), 150 mM NaCl, 0.1% Nonidet P-40, 1 mM EDTA (pH 8.0), 0.25% gelatin 0.02% sodium azide), then resuspended in SDS-PAGE sample buffer. In vitro translation products in both the pellets and supernatants from the immunoprecipitations were resolved by SDS-PAGE, transferred to nitrocellulose, probed with S-protein HRP conjugate (Novagen) and detected by chemiluminescence.

[4] = biological target: B2; assay: as above
Description: as §1

## B1
[1]
  p60:p80 molar ratio in the co-purified protein: ~0.9 mol p80 per 1.0 mol p60
[2]
  binding result: binds

## B2
[3]
  binding result: no binding

## B3
[4]
  binding result: no binding
